From the RNAGym collection of RNA variant scans (doi:10.7554/elife.80360)

B1: Twister Ribozyme (parent)
chain: AACACUGCCAAUGCCGGUCCCAAGCCCGGAUAAAAGUGGAGGGGGCGG

Variants of: B1
Assay: self-cleavage, relative activity (ratio to wild type); higher = more cleavage; co-transcriptional

| Variant | self-cleavage |
| --- | --- |
| AACACUGCCAAUGCCGGUCCCAAGCCCGGAUGAAAGUGGAGGGGGCCG [A32G G47C] | 0.473 |
| AACACUGCCAAUGCCGGUCCCAAGCCCGGAUGAAAGAGGAGGGGGCGG [A32G U37A] | 0.752 |
| AACACUGCCAAUGCCGGUCCCAAGCCCGGAUGAAAGCGGAGGGGGCGG [A32G U37C] | 0.844 |
| AACACUGCCAAUGCCGGUCCCAAGCCCGGAUUCAAGUGGAGGGGGCGG [A32U A33C] | 0.895 |
| AACACUGCCAAUGCCGGUCCCAAGCCCGGAUUUAAGUGGAGGGGGCGG [A32U A33U] | 0.938 |
| AACACUGCCAAUGCCGGUCCCAAGCCCGGAUUACAGUGGAGGGGGCGG [A32U A34C] | 0.231 |
| AACACUGCCAAUGCCGGUCCCAAGCCCGGAUUAACGUGGAGGGGGCGG [A32U A35C] | 1.01 |
| AACACUGCCAAUGCCGGUCCCAAGCCCGGAUUAAGGUGGAGGGGGCGG [A32U A35G] | 0.746 |
| AACACUGCCAAUGCCGGUCCCAAGCCCGGAUUAAAGUGGUGGGGGCGG [A32U A40U] | 0.193 |
| AACACUGCCAAUGCCGGUCCCAAGCCCGGAUUAAAGUGGAGGGGGUGG [A32U C46U] | 1.02 |
| AACACUGCCAAUGCCGGUCCCAAGCCCGGAUUAAACUGGAGGGGGCGG [A32U G36C] | 0.435 |
| AACACUGCCAAUGCCGGUCCCAAGCCCGGAUUAAAUUGGAGGGGGCGG [A32U G36U] | 0.148 |
| AACACUGCCAAUGCCGGUCCCAAGCCCGGAUUAAAGUAGAGGGGGCGG [A32U G38A] | 0.85 |
| AACACUGCCAAUGCCGGUCCCAAGCCCGGAUUAAAGUUGAGGGGGCGG [A32U G38U] | 0.94 |
| AACACUGCCAAUGCCGGUCCCAAGCCCGGAUUAAAGUGGAAGGGGCGG [A32U G41A] | 0.488 |
| AACACUGCCAAUGCCGGUCCCAAGCCCGGAUUAAAGUGGAGAGGGCGG [A32U G42A] | 0.324 |
| AACACUGCCAAUGCCGGUCCCAAGCCCGGAUUAAAGUGGAGCGGGCGG [A32U G42C] | 0.437 |
| AACACUGCCAAUGCCGGUCCCAAGCCCGGAUUAAAGUGGAGGCGGCGG [A32U G43C] | 0.139 |
| AACACUGCCAAUGCCGGUCCCAAGCCCGGAUUAAAGUGGAGGGAGCGG [A32U G44A] | 0.919 |
| AACACUGCCAAUGCCGGUCCCAAGCCCGGAUUAAAGUGGAGGGUGCGG [A32U G44U] | 0.885 |
| AACACUGCCAAUGCCGGUCCCAAGCCCGGAUUAAAGUGGAGGGGACGG [A32U G45A] | 0.823 |
| AACACUGCCAAUGCCGGUCCCAAGCCCGGAUUAAAGUGGAGGGGCCGG [A32U G45C] | 0.506 |
| AACACUGCCAAUGCCGGUCCCAAGCCCGGAUUAAAGUGGAGGGGGCGA [A32U G48A] | 0.942 |
| AACACUGCCAAUGCCGGUCCCAAGCCCGGAUACAAGUGGAGGGGGCGG [A33C] | 0.975 |
| AACACUGCCAAUGCCGGUCCCAAGCCCGGAUACCAGUGGAGGGGGCGG [A33C A34C] | 0.383 |
| AACACUGCCAAUGCCGGUCCCAAGCCCGGAUACGAGUGGAGGGGGCGG [A33C A34G] | 0.82 |
| AACACUGCCAAUGCCGGUCCCAAGCCCGGAUACAAGUGGAGGGGGAGG [A33C C46A] | 0.934 |

| Variant | self-cleavage |
| --- | --- |
| AACACUGCCAAUGCCGGUCCCAAGCCCGGAUACAAGUGGAGGGGGGGG [A33C C46G] | 0.751 |
| AACACUGCCAAUGCCGGUCCCAAGCCCGGAUACAAGUGGAGGGGGUGG [A33C C46U] | 0.961 |
| AACACUGCCAAUGCCGGUCCCAAGCCCGGAUACAACUGGAGGGGGCGG [A33C G36C] | 0.101 |
| AACACUGCCAAUGCCGGUCCCAAGCCCGGAUACAAUUGGAGGGGGCGG [A33C G36U] | 0.122 |
| AACACUGCCAAUGCCGGUCCCAAGCCCGGAUACAAGUCGAGGGGGCGG [A33C G38C] | 0.918 |
| AACACUGCCAAUGCCGGUCCCAAGCCCGGAUACAAGUGAAGGGGGCGG [A33C G39A] | 0.438 |
| AACACUGCCAAUGCCGGUCCCAAGCCCGGAUACAAGUGGAAGGGGCGG [A33C G41A] | 0.309 |
| AACACUGCCAAUGCCGGUCCCAAGCCCGGAUACAAGUGGACGGGGCGG [A33C G41C] | 0.151 |
| AACACUGCCAAUGCCGGUCCCAAGCCCGGAUACAAGUGGAGGAGGCGG [A33C G43A] | 0.17 |
| AACACUGCCAAUGCCGGUCCCAAGCCCGGAUACAAGUGGAGGGUGCGG [A33C G44U] | 0.97 |
| AACACUGCCAAUGCCGGUCCCAAGCCCGGAUACAAGUGGAGGGGGCCG [A33C G47C] | 0.274 |
| AACACUGCCAAUGCCGGUCCCAAGCCCGGAUACAAGUGGAGGGGGCGU [A33C G48U] | 1.04 |
| AACACUGCCAAUGCCGGUCCCAAGCCCGGAUACAAGAGGAGGGGGCGG [A33C U37A] | 0.447 |
| AACACUGCCAAUGCCGGUCCCAAGCCCGGAUAGAAGUGGAGGGGGCGG [A33G] | 0.96 |
| AACACUGCCAAUGCCGGUCCCAAGCCCGGAUAGCAGUGGAGGGGGCGG [A33G A34C] | 0.108 |
| AACACUGCCAAUGCCGGUCCCAAGCCCGGAUAGGAGUGGAGGGGGCGG [A33G A34G] | 0.253 |
| AACACUGCCAAUGCCGGUCCCAAGCCCGGAUAGUAGUGGAGGGGGCGG [A33G A34U] | 0.461 |
| AACACUGCCAAUGCCGGUCCCAAGCCCGGAUAGACGUGGAGGGGGCGG [A33G A35C] | 0.858 |
| AACACUGCCAAUGCCGGUCCCAAGCCCGGAUAGAAGUGGCGGGGGCGG [A33G A40C] | 0.17 |
| AACACUGCCAAUGCCGGUCCCAAGCCCGGAUAGAAGUGGGGGGGGCGG [A33G A40G] | 0.195 |
| AACACUGCCAAUGCCGGUCCCAAGCCCGGAUAGAAGUGGAGGGGGAGG [A33G C46A] | 0.894 |
| AACACUGCCAAUGCCGGUCCCAAGCCCGGAUAGAAGUGGAGGGGGUGG [A33G C46U] | 0.851 |
| AACACUGCCAAUGCCGGUCCCAAGCCCGGAUAGAACUGGAGGGGGCGG [A33G G36C] | 0.303 |
| AACACUGCCAAUGCCGGUCCCAAGCCCGGAUAGAAGUUGAGGGGGCGG [A33G G38U] | 0.861 |
| AACACUGCCAAUGCCGGUCCCAAGCCCGGAUAGAAGUGGACGGGGCGG [A33G G41C] | 0.197 |
| AACACUGCCAAUGCCGGUCCCAAGCCCGGAUAGAAGUGGAGCGGGCGG [A33G G42C] | 0.268 |
| AACACUGCCAAUGCCGGUCCCAAGCCCGGAUAGAAGUGGAGUGGGCGG [A33G G42U] | 0.17 |
